Assays:
[1] = target: T1, mutant LRH1 (LRH1S510E; constitutive phosphorylated product) (human, UniProt O00482 1-541); assay: immunohistochemical staining of HEK293T cell block sections expressing LRH1S510E
T1 construct: It is a nuclear protein, not on the cell surface; also called HEK293T:LRH1S510E

[2] = target: T2, antigen peptide in which Ser510 is not phosphorylated (non-phosphorylated LRH1 peptide) (human); assay: ELISA, concentration series of peptide, purified antibody
T2 construct: also called non-pS510-LRH1 peptide; peptide containing a non-phosphorylated product of serine at position 510
T2 peptide: RLPEIRAISMQAEE

T1 sequence (O00482 whole entry S510E): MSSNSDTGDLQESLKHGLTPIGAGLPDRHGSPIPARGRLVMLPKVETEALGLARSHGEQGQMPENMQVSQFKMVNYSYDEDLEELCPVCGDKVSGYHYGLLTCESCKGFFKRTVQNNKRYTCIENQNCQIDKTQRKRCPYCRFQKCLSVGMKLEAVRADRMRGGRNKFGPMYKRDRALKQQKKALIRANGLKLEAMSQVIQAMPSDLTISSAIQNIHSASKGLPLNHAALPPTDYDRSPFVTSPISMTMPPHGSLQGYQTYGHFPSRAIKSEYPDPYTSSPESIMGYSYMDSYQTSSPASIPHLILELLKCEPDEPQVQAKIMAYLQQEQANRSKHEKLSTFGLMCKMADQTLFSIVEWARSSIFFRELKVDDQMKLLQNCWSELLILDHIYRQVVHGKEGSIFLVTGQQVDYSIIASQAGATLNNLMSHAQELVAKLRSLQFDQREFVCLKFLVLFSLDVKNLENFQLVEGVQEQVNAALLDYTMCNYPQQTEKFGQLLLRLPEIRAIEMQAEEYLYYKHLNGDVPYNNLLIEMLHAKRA

- binding result [1]: binds
- binding result [2]: no binding
B1: anti-pSer510-LRH1 monoclonal antibody clone 55 (FMU-P2-C2) (antibody, V domains shown)
VH: EVKLVESGGGLVQPGGSLRLSCAASGFTFADFYMSWIRQSPGKAPEWLSFIRNKAKSYTTEYNPSVKGRFTISRDDTQNVLYLQMNTLRAEDTAIYYCAKHERGGAGDYWGQGVMVTVSL
VL: DIQMTQSPASLSASPEEIVTITCQASQDIGNWLTWYQQKPGKSPQLLIYSATSLADGIPSRFSGSRSGTQYSLKISRLQVEDTGIYYCLQRYSNPLTFGSGTKLEIK
notes: Rat monoclonal antibody from a hybridoma (Wistar rat iliac lymph node cells fused with mouse myeloma SP2), detected with anti-rat IgG secondary antibodies; also called rat anti-pSer510-LRH1 monoclonal antibody clone 55; purified anti-pSer510-LRH1 monoclonal antibody
